Molecular target: recombinant p30 protein of ASFV (African swine fever virus (ASFV), UniProt P0C9Z3 1-181)
Assay: ELISA, IgG titrated on immobilized recombinant p30

Row | Binder | EC50 [ng/mL]
1 | p30-077 IgG (antibody, V domains shown) VH: EVQLVESGGGLVQPGGSLRLSCAASGFTIGDWGIHWVRQAPGKGLEWVAGIWPFGGFTFYADSVKGRFTISADTSKNTAYLQMNSLRAEDTAVYYCARGSFYWDYWGQGTLVTVSS VL: DIQMTQSPSSLSASVGDRVTITCRASQDVNNNVAWYQQKPGKAPKLLISSPTYLYSGVPSRFSGSGSGTDFTLTISSLQPEDFATYYCQQWYDWPITFGQGTKVEIKR | 2.6
2 | p30-090 IgG (antibody, V domains shown) VH: EVQLVESGGGLVQPGGSLRLSCAASGFTIDGGGIHWVRQAPGKGLEWVAGIWPSWGYTYYADSVKGRFTISADTSKNTAYLQMNSLRAEDTAVYYCARGFYWYDYWGQGTLVTVSS VL: DIQMTQSPSSLSASVGDRVTITCRASQDVNNDVAWYQQKPGKAPKLLIFYPGGLYSGVPSRFSGSGSGTDFTLTISSLQPEDFATYYCQQSWNYPLTFGQGTKVEIKR | 0.9
3 | p30-091 IgG (antibody, V domains shown) VH: EVQLVESGGGLVQPGGSLRLSCAASGFTISDYWIHWVRQAPGKGLEWVAYINPHYGLTDYADSVKGRFTISADTSKNTAYLQMNSLRAEDTAVYYCARGWLLDYWGQGTLVTVSS VL: DIQMTQSPSSLSASVGDRVTITCKSNQNLLDSGDQGTYLNWYQQKPGKAPKLLISDVSNLYSGVPSRFSGSGSGTDFTLTISSLQPEDFATYYCYQATSFPFTFGQGTKVEIKR | 2.6
4 | p30-052 IgG (antibody, V domains shown) VH: EVQLVESGGGLVQPGGSLRLSCAASGFTIDSGFIHWVRQAPGKGLEWVAGIGPFWGFTFYADSVKGRFTISADTSKNTAYLQMNSLRAEDTAVYYCARYGSSSYGFDYWGQGTLVTVSS VL: DIQMTQSPSSLSASVGDRVTITCRASQDVDNNVAWYQQKPGKAPKLLISSPGFLYSGVPSRFSGSGSGTDFTLTISSLQPEDFATYYCQQYFNFPITFGQGTKVEIKR | 2

— patent publication US20250369970A1 (ACADEMIA SINICA, published 2025)
